B1: cMYC 3'UTR-ARE2 (ssRNA)
RNA: UUUGUAUUUAAGAAU
B2: cMYC 3'UTR-ARE1 (ssRNA)
RNA: GAAAGAUUUAGCCAU
B3: cMYC 3'UTR-ARE4 (ssRNA)
RNA: UUUUUAUUUAAGUAC
B4: cMYC 3'UTR-ARE5 (ssRNA)
RNA: UUGUGAUUUAUUUUG

FXR1-GST, sequence (P51114 whole entry): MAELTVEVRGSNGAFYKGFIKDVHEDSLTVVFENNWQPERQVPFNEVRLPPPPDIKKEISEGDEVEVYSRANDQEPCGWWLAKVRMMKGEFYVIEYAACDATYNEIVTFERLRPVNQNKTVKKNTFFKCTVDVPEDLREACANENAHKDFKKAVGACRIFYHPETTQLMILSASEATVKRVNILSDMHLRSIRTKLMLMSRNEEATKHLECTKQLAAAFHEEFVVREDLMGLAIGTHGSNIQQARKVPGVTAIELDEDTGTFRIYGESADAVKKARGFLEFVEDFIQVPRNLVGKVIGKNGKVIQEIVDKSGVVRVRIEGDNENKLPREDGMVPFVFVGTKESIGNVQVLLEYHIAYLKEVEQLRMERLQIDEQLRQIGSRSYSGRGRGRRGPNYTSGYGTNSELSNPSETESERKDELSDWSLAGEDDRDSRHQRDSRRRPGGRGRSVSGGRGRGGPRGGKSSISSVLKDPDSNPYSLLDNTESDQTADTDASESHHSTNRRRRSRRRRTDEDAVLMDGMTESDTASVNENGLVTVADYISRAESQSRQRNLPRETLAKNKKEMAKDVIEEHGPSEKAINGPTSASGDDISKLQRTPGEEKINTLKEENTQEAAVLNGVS

The data set concerns the target FXR1-GST (Homo sapiens, UniProt P51114 1-621). The data set is described as follows: EMSA.
Turning to B1, the binding result is given as “binds”. Consider B2, for which the binding result is given as “binds”.

Consider B3, for which the binding result was “binds”. Next, B4: “binds”.
